Literature values as cited in paper PMC2866048.

Target: F-actin (Oryctolagus cuniculus) (UniProt P68135)

Kd: 120 nM
Substance: drebrin (from UniProt Q16643)
